# According to paper PMC7920257, “Probing Protein Folding with Sequence-Reversed α-Helical Bundles” (International Journal of Molecular Sciences, 2021):
# B1: Rop (natural protein)
# chain: MTKQEKTALNMARFIRSQTLTLLEKLNELDADEQADICESLHDHADELYRSCLARFGDDGENL
# notes: homodimeric 4-alpha-helical bundle; also called wtRop; wild-type Rop
# Legend:
# RM6 = RM6 (UniProt P03051); test: SAXS; 10 °C, 1–12 mg/mL; molecular mass from I(0) of the Guinier plot against BSA; rRop from the refolding protocol
# rRM6 [1] = test: SEC; Sephacryl S-200 high-resolution column, 20 °C, 0.5 mL/min, after Ni-NTA; rRop from the refolding protocol gives an asymmetric peak
# rRM6 [2] = test: SEC-MALS; 100 uL loaded (wtRop 3 mg/mL, rRop 5.5 mg/mL, rRM6 3.5 mg/mL) on Superdex 75 (wtRop, rRop) or Superdex 200 (rRM6); rRop from the non-refolding protocol
# rRM6 [3] = test: SAXS; 10 °C, 1–12 mg/mL; molecular mass from I(0) of the Guinier plot against BSA; rRop from the refolding protocol
# rRop = test: SEC-MALS; 100 uL loaded (wtRop 3 mg/mL, rRop 5.5 mg/mL, rRM6 3.5 mg/mL) on Superdex 75 (wtRop, rRop) or Superdex 200 (rRM6); rRop from the non-refolding protocol
# [4] = biological target: the molecule itself; test: as above
molecule,measurement,setting,value
RM6 (from UniProt P03051 1-63) (natural protein),stoichiometry N,RM6,4
rRM6,stoichiometry N,rRM6 [1],4
same,stoichiometry N,rRM6 [2],4
same,stoichiometry N,rRM6 [3],4
rRop,stoichiometry N,rRop,2
B1,stoichiometry N,[4],2
